According to paper PMC12081870 (Communications Biology, 2025):

Test: 15N NMR relaxation (T1, T2, NOE) of Sla1 SH3#1&2
Type: physicochemical, Saccharomyces cerevisiae
Design: Time Constant (T2) / T1 / T2: unit not given here
Details: for R1/s: 15N relaxation rate; for NOE / T1 / T2: 15N relaxation; for Time Constant (T2): fit A exp(-Bx), 11 peaks
Text: Fig. 2 A structural analysis of Sla1 SH3 domains 1 and 2. A The predicted interface between the first two SH3 domains of Sla1 as modelled using Alphafold. SH3#1 is shown in light green and SH3#2 is shown in cyan. Residues predicted to form hydrogen bonds using the Pymol search function are shown as sticks and labelled with their respective residue numbers. Dashed black lines indicate interactions. The red line in the structure indicates residues 67–70 in the hinge between the SH3 domains; the magenta loop indicates residues 52–54. B Assignment of the ^1H ^15N HSQC spectrum of Sla1 SH3 domains 1 and 2. C^15N relaxation data for Sla1 SH3#1&2. The linker between domains is approximately residues 67–70 (shown with red line under the trace and in A), and the mobile region 52-54 is part of a loop (shown with magenta line below the trace and in A). The correlation time of 8.5 ns (derived from the trimmed ^15N T1/T2 ratio), matches that calculated for a rigid two-domain structure rather than two independent domains (8.8 and 4.5 ns, respectively).
To investigate further, we purified ^15N, ^13C labelled Sla1 SH3#1&2 and analysed using NMR. A full assignment was obtained (Fig. 2B) which confirmed the Alphafold structure. An important aspect when considering the function of tandem domains is the level of rigidity or flexibility between the domains. […] NMR was used to determine relaxation parameters (^15N R1, R2 and NOE) of ^15N-labelled SH3#1-2 (Fig. 2B). […] The structural unity of the two-domain structure explains why attempts to study SH3#2 alone were unsuccessful.
Experiments were carried out on Bruker DRX-600 and DRX-800 spectrometers fitted with cryoprobes. SH3 domains 1 and 2 were assigned using a standard set of HNCA/HN(CO)CA, HNCO/HN(CA)CO and CBCAHN/CBCA(CO)HN 3D spectra. The assignment has been deposited at BioMagResBank, with code 52650. SH3 domain-3 was assigned by comparison to data provided by Prof Ishwar Radhakrishnan (Northwestern University) for the same domain although with different residues at both ends. Titrations were conducted with three peptides (GenScript Biotech, UK) comprising the three PP motifs (Fig. 3A): p1 […] (residues 318–339); p2 […] (residues 330–361); and p3 […] (residues 375–397). Peptide solutions were prepared as concentrated stock solutions in the same buffer at the same pH and added stepwise to protein solutions. Shift changes were analysed by picking peaks in Felix (Felix NMR Inc, San Diego, CA), which were downloaded to text files and for determining Kd were analysed using Levenberg-Marquardt least squares fitting to the standard quadratic equation[63]. Analysis of the ^15N relaxation data was carried using CCPN Analysis[64].

[1] = Average over the listed residues

B1: Sla1 SH3#1-2: SH3#1-2 (aa 5-131), tandem domains; sequence in b253 (protein)
chain: LGIYRAVYAYEPQTPEELAIQEDDLLYLLQKSDIDDWWTVKKRVIGSDSEEPVGLVPSTYIEEAPVLKKVRAIYDYEQVQNADEELTFHENDVFDVFDDKDADWLLVKSTVSNEFGFIPGNYVEPEN
modifications: 15N-labelled (NMR only); left off: GST, end not stated, cleaved
R1/s (Res No 120): 1.466 s⁻¹
R1/s (Res No 121): 1.493 s⁻¹
R1/s (Res No 122): 1.379 s⁻¹
R1/s (Res No 124): 1.37 s⁻¹
R1/s (Res No 125): 1.488 s⁻¹
R1/s (Res No 126): 1.238 s⁻¹
R1/s (Res No 127): 1.493 s⁻¹
R1/s (Res No 128): 1.443 s⁻¹
R1/s (Res No 130): 1.206 s⁻¹
R1/s (Res No 131): 1.364 s⁻¹
NOE (Res No 120): 0.82
T1 (Res No 120): 682.123
T2 (Res No 120): 81.3349
NOE (Res No 121): 0.78
T1 (Res No 121): 669.609
T2 (Res No 121): 97.0012
NOE (Res No 122): 0.83
T1 (Res No 122): 725.391
T2 (Res No 122): 86.8543
NOE (Res No 124): 0.77
T1 (Res No 124): 730.172
T2 (Res No 124): 96.3447
NOE (Res No 125): 0.80
T1 (Res No 125): 671.872
T2 (Res No 125): 93.7171
NOE (Res No 126): 0.79
T1 (Res No 126): 807.954
T2 (Res No 126): 78.1493
NOE (Res No 127): 0.85
T1 (Res No 127): 669.869
T2 (Res No 127): 96.0414
NOE (Res No 128): 0.81
T1 (Res No 128): 693.218
T2 (Res No 128): 98.2071
NOE (Res No 130): 0.63
T1 (Res No 130): 829.235
T2 (Res No 130): 96.7653
NOE (Res No 131): 0.25
T1 (Res No 131): 733.153
T2 (Res No 131): 129.47
T1, average [1]: 736.968 ms
T1/T2, average [1]: 7.904
T2, average (Average over the listed residues, unit of column T2 Error not given): 95.1164 ms
tm (If S2 ~ 0.9, from T1/T2): ~8.5 ns
correlation time (derived from trimmed 15N T1/T2 ratio): 8.5 ns
Time Constant (T2) (residue 2, 2LeuH/2LeuN): 74.2339
Time Constant (T2) (residue 3, 3GlyH/3GlyN): 77.6134
Time Constant (T2) (residue 4, 4SerH/4SerN): 87.959
Time Constant (T2) (residue 5, 5LeuH/5LeuN): 78.1323
Time Constant (T2) (residue 6, 6GlyH/6GlyN): 92.4802
Time Constant (T2) (residue 7, 7IleH/7IleN): 92.3591
Time Constant (T2) (residue 8, 8TyrH/8TyrN): 80.6702
Time Constant (T2) (residue 9, 9ArgH/9ArgN): 95.265
Time Constant (T2) (residue 10, 10AlaH/10AlaN): 80.3318
Time Constant (T2) (residue 11, 11ValH/11ValN): 83.3796
Time Constant (T2) (residue 12, 12TyrH/12TyrN): 98.6102
Time Constant (T2) (residue 13, 13AlaH/13AlaN): 103.591
Time Constant (T2) (residue 14, 14TyrH/14TyrN): 86.8853
Time Constant (T2) (residue 15, 15GluH/15GluN): 80.7454
Time Constant (T2) (residue 17, 17GlnH/17GlnN): 97.1227
Time Constant (T2) (residue 18, 18ThrH/18ThrN): 94.4167
Time Constant (T2) (residue 20, 20GluH/20GluN): 89.6372
Time Constant (T2) (residue 21, 21GluH/21GluN): 88.1386
Time Constant (T2) (residue 22, 22LeuH/22LeuN): 101.792
Time Constant (T2) (residue 23, 23AlaH/23AlaN): 109.32
Time Constant (T2) (residue 24, 24IleH/24IleN): 84.8173
Time Constant (T2) (residue 25, 25GlnH/25GlnN): 91.5466
Time Constant (T2) (residue 26, 26GluH/26GluN): 91.8855
Time Constant (T2) (residue 27, 27AspH/27AspN): 90.7749
Time Constant (T2) (residue 28, 28AspH/28AspN): 79.1318
Time Constant (T2) (residue 29, 29LeuH/29LeuN): 102.528
Time Constant (T2) (residue 30, 30LeuH/30LeuN): 94.1276
Time Constant (T2) (residue 31, 31TyrH/31TyrN): 100.15
Time Constant (T2) (residue 32, 32LeuH/32LeuN): 86.762
Time Constant (T2) (residue 33, 33LeuH/33LeuN): 75.7339
Time Constant (T2) (residue 34, 34GlnH/34GlnN): 87.3929
Time Constant (T2) (residue 35, 35LysH/35LysN): 101.82
Time Constant (T2) (residue 36, 36SerH/36SerN): 153.776
Time Constant (T2) (residue 37, 37AspH/37AspN): 90.5854
Time Constant (T2) (residue 38, 38IleH/38IleN): 99.0603
